Data taken from article PMC7468457.

Columns and labels:
[1] = target: AT1R-Rluc (AngII type 1 receptor fused to Renilla luciferase) (human) (UniProt P30556)
[2] = target: AT1R-Rluc (AngII type 1 receptor fused to Renilla luciferase) (human) (UniProt P30556); remark: listed apart in the source
[3] = target: AT1R-Rluc (AngII type 1 receptor fused to Renilla luciferase) (human) (UniProt P30556); remark: listed apart in the source
[4] = target: AT1R-Rluc (AngII type 1 receptor fused to Renilla luciferase) (human) (UniProt P30556); remark: listed apart in the source
[5] = target: AT1R-Rluc (AngII type 1 receptor fused to Renilla luciferase) (human) (UniProt P30556); remark: listed apart in the source
[6] = target: AT1R-Rluc (AngII type 1 receptor fused to Renilla luciferase) (human) (UniProt P30556); remark: listed apart in the source

UniProt P30556, sequence (P30556 whole entry, the tested form may be a part): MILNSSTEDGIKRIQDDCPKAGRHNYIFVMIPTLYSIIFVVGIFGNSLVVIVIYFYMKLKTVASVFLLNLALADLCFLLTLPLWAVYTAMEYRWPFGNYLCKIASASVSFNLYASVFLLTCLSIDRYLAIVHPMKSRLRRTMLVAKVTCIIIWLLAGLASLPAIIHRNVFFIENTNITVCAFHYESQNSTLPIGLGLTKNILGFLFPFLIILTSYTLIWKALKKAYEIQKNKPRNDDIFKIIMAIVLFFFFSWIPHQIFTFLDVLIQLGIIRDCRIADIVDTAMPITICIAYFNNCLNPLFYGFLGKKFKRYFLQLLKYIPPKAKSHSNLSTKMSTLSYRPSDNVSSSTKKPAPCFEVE

Emax of thrombin dose-response, BRET between AT1R-Rluc and Venus-Gαq, PAR1 overexpressed, thrombin alone; 10 nM AngII alone taken as 100% [1]: 211%
Emax of thrombin dose-response, BRET between AT1R-Rluc and Venus-Gαq, PAR1 overexpressed, with 10 nM AngII [1]: 342%
Emax of thrombin dose-response, BRET between AT1R-Rluc and yPET-β-arrestin 2, PAR1 overexpressed, thrombin alone; 10 nM AngII alone taken as 100% [1]: 102%
Emax of thrombin dose-response, BRET between AT1R-Rluc and yPET-β-arrestin 2, PAR1 overexpressed, with 10 nM AngII [1]: 299%
real-time BRET between AT1R-Rluc and Venus-Gαq, PAR1 overexpressed, AngII 10 nM and thrombin 1 U/ml together (% of AngII response) [2]: 207
real-time BRET between AT1R-Rluc and Venus-Gαq, PAR1 overexpressed, thrombin 1 U/ml alone (% of AngII response) [2]: 79
real-time BRET between AT1R-Rluc and yPET-β-arrestin 2, PAR1 overexpressed, AngII 10 nM and thrombin 1 U/ml together (% of AngII response) [2]: 218
real-time BRET between AT1R-Rluc and yPET-β-arrestin 2, PAR1 overexpressed, thrombin 1 U/ml alone (% of AngII response) [2]: 44
sequential real-time BRET between AT1R-Rluc and yPET-β-arrestin 2, PAR1 overexpressed, vehicle then thrombin 1 U/ml (% of AngII response) [3]: 50
IP1 production in HEK293 cells coexpressing AT1R-Rluc and PAR1, AngII 10 nM and thrombin 1 U/ml together [4]: 160%
AT1R endosomal trafficking (BRET between AT1R-Rluc and Venus-Rab5), PAR1 overexpressed and co-activated [5]: 45%
AT1R endosomal trafficking (BRET between AT1R-Rluc and Venus-Rab7), PAR1 overexpressed and co-activated [5]: 41%
BRET increase between AT1R-Rluc and Venus-Gαq by thrombin 1 U/ml with PAR1 overexpression, dose-response to AngII (Figure 1D) (% of AngII response) [6]: 70 to 75
BRET increase between AT1R-Rluc and yPET-β-arrestin 2 by thrombin 1 U/ml with PAR1 overexpression (Figure 1F) (% of AngII response) [6]: 25
B1: PAR1 (untagged protease-activated receptor 1) (receptor)
chain: SFLLRNPNDKYEPFWEDEEKNESGLTEYRLVSINKSSPLQKQLPAFISEDASGYLTSSWLTLFVPSVYTGVFVVSLPLNIMAIVVFILKMKVKKPAVVYMLHLATADVLFVSVLPFKISYYFSGSDWQFGSELCRFVTAAFYCNMYASILLMTVISIDRFLAVVYPMQSLSWRTLGRASFTCLAIWALAIAGVVPLLLKEQTIQVPGLNITTCHDVLNETLLEGYYAYYFSAFSAVFFFVPLIISTVCYVSIIRCLSSSAVANRSKKSRALFLSAAVFCIFIICFGPTNVLLIAHYSFLSHTSTTEAAYFAYLLCVCVSSISCCIDPLIYYYASSECQRYVYSILCCKESSDPSSYNSSGQLMASKMDTCSSNLNNSIYKKLLT
